Measured values: patent publication US20220332804A1 (CSL INNOVATION, published 2022)
Substitutions are numbered along the chain they refer to.

Tests used:
Experiment in all cases: SPR, KD relative to WT C2;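 note: biacore SPR at 37 °C, anti-C2 mAbs captured via immobilised goat anti-human IgG, C2 alanine or serine surface mutants as analytes, 1:1 model fitted, double-referenced sensograms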
human C2 K274A = target: T1, human C2 K274A (human, UniProt P06681 21-752)
T1 sequence: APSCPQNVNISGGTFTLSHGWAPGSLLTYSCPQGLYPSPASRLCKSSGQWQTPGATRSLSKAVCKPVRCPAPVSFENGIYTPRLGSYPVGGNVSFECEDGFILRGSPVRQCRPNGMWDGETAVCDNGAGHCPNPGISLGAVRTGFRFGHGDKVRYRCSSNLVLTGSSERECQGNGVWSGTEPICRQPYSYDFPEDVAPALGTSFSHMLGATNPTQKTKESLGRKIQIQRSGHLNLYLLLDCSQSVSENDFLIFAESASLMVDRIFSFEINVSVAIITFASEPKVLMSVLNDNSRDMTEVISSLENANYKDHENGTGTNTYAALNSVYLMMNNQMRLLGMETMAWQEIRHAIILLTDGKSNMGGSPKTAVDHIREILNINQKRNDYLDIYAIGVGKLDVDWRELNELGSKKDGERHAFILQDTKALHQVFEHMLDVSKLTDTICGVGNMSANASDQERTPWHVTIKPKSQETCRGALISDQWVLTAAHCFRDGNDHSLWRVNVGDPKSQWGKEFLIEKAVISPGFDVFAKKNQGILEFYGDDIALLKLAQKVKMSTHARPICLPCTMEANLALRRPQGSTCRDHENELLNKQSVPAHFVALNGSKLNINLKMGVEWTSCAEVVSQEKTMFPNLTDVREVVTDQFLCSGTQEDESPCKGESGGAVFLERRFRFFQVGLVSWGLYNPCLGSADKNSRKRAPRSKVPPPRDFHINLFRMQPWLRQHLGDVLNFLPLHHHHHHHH

human C2 M316A = target: T2, human C2 M316A (human, UniProt P06681 21-752)
T2 sequence: T1 sequence with A254K, M296A

human C2 S708A = target: T3, human C2 S708A (human, UniProt P06681 21-752)
T3 sequence: T1 sequence with A254K, S688A

human C2 R719A = target: T4, human C2 R719A (human, UniProt P06681 21-752)
T4 sequence: T1 sequence with A254K, R699A

B1: RF16-226 (antibody, human IgG4 S228P, lambda)
heavy: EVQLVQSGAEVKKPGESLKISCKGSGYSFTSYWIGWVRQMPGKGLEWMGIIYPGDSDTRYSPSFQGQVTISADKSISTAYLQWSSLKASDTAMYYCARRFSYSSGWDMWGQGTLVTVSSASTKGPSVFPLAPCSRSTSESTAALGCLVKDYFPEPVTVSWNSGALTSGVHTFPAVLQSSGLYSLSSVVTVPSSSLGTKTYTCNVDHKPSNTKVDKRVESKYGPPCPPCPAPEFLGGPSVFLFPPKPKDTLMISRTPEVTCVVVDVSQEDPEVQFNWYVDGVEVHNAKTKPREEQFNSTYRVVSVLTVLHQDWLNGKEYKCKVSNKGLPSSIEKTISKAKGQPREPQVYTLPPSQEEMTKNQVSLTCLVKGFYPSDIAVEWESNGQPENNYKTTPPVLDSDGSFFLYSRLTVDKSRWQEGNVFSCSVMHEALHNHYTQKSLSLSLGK
light: SYELTQPPSVSVSPGQTARITCSGDALTSKYVAWYQQKSGLAPLLVIYEDTRRPSGIPAKFSGSSSGSVATLTISGAHGDDEADYYCYSTDASGHQRVFGGGTKLTVLSQPKAAPSVTLFPPSSEELQANKATLVCLISDFYPGAVTVAWKADGSPVKAGVETTKPSKQSNNKYAASSYLSLTPEQWKSHRSYSCQVTHEGSTVEKTVAPTECS
notes: pH-dependent anti-C2 antibody from a phage display library; also called WT
B1 gave a Fold diff (human C2 K274A) of 29 fold, a Fold diff (human C2 M316A) of 1 fold and a Fold diff (human C2 S708A) of 2 fold. For the same binder, the Fold diff (human C2 R719A) was 1 fold.
